Assay results taken from paper PMC7721913 (The Journal of Cell Biology, 2020).

B1: KIF5C: kinesin heavy chain KIF5C (protein, UniProt O60282 1-957, looked up)
Kinesin heavy chain isoform 5C: MADPAECSIKVMCRFRPLNEAEILRGDKFIPKFKGDETVVIGQGKPYVFDRVLPPNTTQEQVYNACAKQIVKDVLEGYNGTIFAYGQTSSGKTHTMEGKLHDPQLMGIIPRIAHDIFDHIYSMDENLEFHIKVSYFEIYLDKIRDLLDVSKTNLAVHEDKNRVPYVKGCTERFVSSPEEVMDVIDEGKANRHVAVTNMNEHSSRSHSIFLINIKQENVETEKKLSGKLYLVDLAGSEKVSKTGAEGAVLDEAKNINKSLSALGNVISALAEGTKTHVPYRDSKMTRILQDSLGGNCRTTIVICCSPSVFNEAETKSTLMFGQRAKTIKNTVSVNLELTAEEWKKKYEKEKEKNKTLKNVIQHLEMELNRWRNGEAVPEDEQISAKDQKNLEPCDNTPIIDNIAPVVAGISTEEKEKYDEEISSLYRQLDDKDDEINQQSQLAEKLKQQMLDQDELLASTRRDYEKIQEELTRLQIENEAAKDEVKEVLQALEELAVNYDQKSQEVEDKTRANEQLTDELAQKTTTLTTTQRELSQLQELSNHQKKRATEILNLLLKDLGEIGGIIGTNDVKTLADVNGVIEEEFTMARLYISKMKSEVKSLVNRSKQLESAQMDSNRKMNASERELAACQLLISQHEAKIKSLTDYMQNMEQKRRQLEESQDSLSEELAKLRAQEKMHEVSFQDKEKEHLTRLQDAEEMKKALEQQMESHREAHQKQLSRLRDEIEEKQKIIDEIRDLNQKLQLEQEKLSSDYNKLKIEDQEREMKLEKLLLLNDKREQAREDLKGLEETVSRELQTLHNLRKLFVQDLTTRVKKSVELDNDDGGGSAAQKQKISFLENNLEQLTKVHKQLVRDNADLRCELPKLEKRLRATAERVKALESALKEAKENAMRDRKRYQQEVDRIKEAVRAKNMARRAHSAQIAKPIRPGHYPASSPTAVHAIRGGGGSSSNSTHYQK
B2: WT KIF5A: kinesin heavy chain KIF5A (protein, UniProt Q6QLM7 2-1027, looked up)
Kinesin heavy chain isoform 5A: AETNNECSIKVLCRFRPLNQAEILRGDKFIPIFQGDDSVIIGGKPYVFDRVFPPNTTQEQVYHACAMQIVKDVLAGYNGTIFAYGQTSSGKTHTMEGKLHDPQLMGIIPRIARDIFNHIYSMDENLEFHIKVSYFEIYLDKIRDLLDVTKTNLSVHEDKNRVPFVRGCTERFVSSPEEILDVIDEGKSNRHVAVTNMNEHSSRSHSIFLINIKQENIETEQKLSGKLYLADLAGSEKVSKTGAEGAVLDEAKNINKSLSALGNVISALAEGTKSYVPYRDSKMTRILQDSLGGNCRTTMFICCSPSSYNDAETKSTLMFGQRAKTIKNTASVNLELTAEQWKKKYEKEKEKTKAQKETIAKLEAELSRWRNGENVPETERLAGEDSALAAEICEETPVNDNSSIVVRIAPEERQKYEEEIRRLYKQLDDKDDEINQQSQLIEKLKQQMLDQEELLVSTRGDNEKVQRELSHLQSENDAAKEEVKEVLQALEELAVNYDQKSQEVEEKSQQNQLLVDELSQKVATMLSLESEPQRLQEVSGHQRKRIAEVLNGLMKDLSEFSVIVGNGEIKLPVEISGAIEEEFTVARLYISKIKSEVKSVVKRCRQLENLQVECHRKMEVTGRELSSCQLLISQHEAKIRSLTEYMQTVELKKRHLEESYDSLSDELAKLQAQETVHEVALKDKEPDTQDAEEVKKALELQMENHREAHHRQLARLRDEINEKQKTIDELKDLDQKLQLELEKLQADYERLKNEENEKSAKLQELTFLYERHEQSKQDLKGLEETVARELQTLHNLRKLFVQDVTTRVKKSAEMEPEDSGGIHSQKQKISFLENNLEQLTEVHKQLVRDNADLRCELPKLEKRLRATAERVKALEGALKEAKEGAMKDKRRYQQEVDRIKEAVRYKSSGKRGHSAQIAKPVRPGHYPASSPTNPYGTRSPECISYTNNLFQNYQNLHLQAAPSSTSDVYFASNGATSVAPLASYQKANTDNGNATDINDNRSDLPCGYEAEDPAKLFPLHQETAAS
B3: KLC2: kinesin light chain 2 (protein, UniProt Q9H0B6 1-622, looked up)
Kinesin light chain 2: MAMMVFPREEKLSQDEIVLGTKAVIQGLETLRGEHRALLAPLVAPEAGEAEPGSQERCILLRRSLEAIELGLGEAQVILALSSHLGAVESEKQKLRAQVRRLVQENQWLREELAGTQQKLQRSEQAVAQLEEEKQHLLFMSQIRKLDEDASPNEEKGDVPKDTLDDLFPNEDEQSPAPSPGGGDVSGQHGGYEIPARLRTLHNLVIQYASQGRYEVAVPLCKQALEDLEKTSGHDHPDVATMLNILALVYRDQNKYKEAAHLLNDALAIREKTLGKDHPAVAATLNNLAVLYGKRGKYKEAEPLCKRALEIREKVLGKFHPDVAKQLSNLALLCQNQGKAEEVEYYYRRALEIYATRLGPDDPNVAKTKNNLASCYLKQGKYQDAETLYKEILTRAHEKEFGSVNGDNKPIWMHAEEREESKDKRRDSAPYGEYGSWYKACKVDSPTVNTTLRSLGALYRRQGKLEAAHTLEDCASRNRKQGLDPASQTKVVELLKDGSGRRGDRRSSRDMAGGAGPRSESDLEDVGPTAEWNGDGSGSLRRSGSFGKLRDALRRSSEMLVKKLQGGTPQEPPNPRMKRASSLNFLNKSVEEPTQPGGTGLSDSRTLSSSSMDLSRRSSLVG
B4: KIF5B: kinesin heavy chain KIF5B (protein, UniProt P33176 2-963, looked up)
Kinesin-1 heavy chain: ADLAECNIKVMCRFRPLNESEVNRGDKYIAKFQGEDTVVIASKPYAFDRVFQSSTSQEQVYNDCAKKIVKDVLEGYNGTIFAYGQTSSGKTHTMEGKLHDPEGMGIIPRIVQDIFNYIYSMDENLEFHIKVSYFEIYLDKIRDLLDVSKTNLSVHEDKNRVPYVKGCTERFVCSPDEVMDTIDEGKSNRHVAVTNMNEHSSRSHSIFLINVKQENTQTEQKLSGKLYLVDLAGSEKVSKTGAEGAVLDEAKNINKSLSALGNVISALAEGSTYVPYRDSKMTRILQDSLGGNCRTTIVICCSPSSYNESETKSTLLFGQRAKTIKNTVCVNVELTAEQWKKKYEKEKEKNKILRNTIQWLENELNRWRNGETVPIDEQFDKEKANLEAFTVDKDITLTNDKPATAIGVIGNFTDAERRKCEEEIAKLYKQLDDKDEEINQQSQLVEKLKTQMLDQEELLASTRRDQDNMQAELNRLQAENDASKEEVKEVLQALEELAVNYDQKSQEVEDKTKEYELLSDELNQKSATLASIDAELQKLKEMTNHQKKRAAEMMASLLKDLAEIGIAVGNNDVKQPEGTGMIDEEFTVARLYISKMKSEVKTMVKRCKQLESTQTESNKKMEENEKELAACQLRISQHEAKIKSLTEYLQNVEQKKRQLEESVDALSEELVQLRAQEKVHEMEKEHLNKVQTANEVKQAVEQQIQSHRETHQKQISSLRDEVEAKAKLITDLQDQNQKMMLEQERLRVEHEKLKATDQEKSRKLHELTVMQDRREQARQDLKGLEETVAKELQTLHNLRKLFVQDLATRVKKSAEIDSDDTGGSAAQKQKISFLENNLEQLTKVHKQLVRDNADLRCELPKLEKRLRATAERVKALESALKEAKENASRDRKRYQQEVDRIKEAVRSKNMARRGHSAQIAKPIRPGQHPAASPTHPSAIRGGGAFVQNSQPVAVRGGGGKQV
B5: KIF3C: kinesin transporting RNA granules in neurons (protein, UniProt O55165 1-796, looked up)
Kinesin-like protein KIF3C: MASKTKASEALKVVARCRPLSRKEEAAGHEQILTMDVKLGQVTLRNPRAAPGELPKTFTFDAVYDASSKQADLYDETVRPLIDSVLQGFNGTVFAYGQTGTGKTYTMQGTWVEPELRGVIPNAFEHIFTHISRSQNQQYLVRASYLEIYQEEIRDLLSKEPGKRLELKENPETGVYIKDLSSFVTKNVKEIEHVMNLGNQARAVGSTHMNEVSSRSHAIFVITVECSERGSDGQDHIRVGKLNLVDLAGSERQNKAGPNTPGGPATQSTAGGGGGGGGTSGSGSSGERPKEASKINLSLSALGNVIAALAGNRSTHIPYRDSKLTRLLQDSLGGNAKTIMVATLGPASHSYDESLSTLRFANRAKNIKNKPRVNEDPKDTLLREFQEEIARLKAQLEKKGMLGKRPRRKSSRRKKAVSAPAGYPEGAVIEAWVAEEEDDNNNNHRPPQPTLEAALEKNMENYLQEQKERLEEEKAAIQDDRSLVSEEKQKLLEEKEKMLEDLKREQQATELLAAKYKAMESKLLIGGRNIMDHTNEQQKMLELKRQEIAEQKRREREMQQEMLLRDEETMELRGTYSSLQQEVEVKTKKLKKLYAKLQAVKAEIQDQHEEYIRVRQDLEEAQNEQTRELKLKYLIIENFIPPEEKNKIMNRLFLDCEEEQWKFQPLVPAGVNNSQMKKRPTSAVGYKRPISQYARVAMAMGSHPRYRAENIMFLELDVSPPAIFEMEFSHDQEQDPRVLHMERLMRLDSFLERPSTSKVRKSRSWCQSPQRPPPPSTVHASMASAPLHPATVVDHD
B6: KLC1: kinesin light chain 1 (protein)
chain: MHDNMSTMVYMKEEKLEKLTQDEIISKTKQVIQGLEALKNEHNSILQSLLETLKCLKKDDESNLVEEKSSMIRKSLEMLELGLSEAQVMMALSNHLNAVESEKQKLRAQVRRLCQENQWLRDELANTQQKLQKSEQSVAQLEEEKKHLEFMNQLKKYDDDISPSEDKDSDSSKEPLDDLFPNDEDDPGQGIQQQHSSAAAAAQQGGYEIPARLRTLHNLVIQYASQGRYEVAVPLCKQALEDLEKTSGHDHPDVATMLNILALVYRDQNKYKDAANLLNDALAIREKTLGRDHPAVAATLNNLAVLYGKRGKYKEAEPLCKRALEIREKVLGKDHPDVAKQLNNLALLCQNQGKYEEVEYYYQRALEIYQTKLGPDDPNVAKTKNNLASCYLKQGKFKQAETLYKEILTRAHEREFGSVDDENKPIWMHAEEREECKGKQKDGSSFGEYGGWYKACKVDSPTVTTTLKNLGALYRRQGKFEAAETLEEAALRSRKQGLDNVHKQRVAEVLNDPENVEKRRSRESLNVDVVKYESGPDGGEEVSMSVEWNGMRKMKLGLVK
B7: KLC1 or its C-terminal mutant (ΔTail) (protein, UniProt P37285 1-560, looked up)
Kinesin light chain 1: B6 chain
modifications: or C-terminal tail deletion mutant

How the values were obtained:
[1] = tested on: CB and distal axon compartments of DRG neurons; assay: Western blot of KIF5 and KLC in cell body and distal axon lysates; assay type: cell-based, rat; details: Campenot CB vs distal axon lysates
[2] = tested on: SFPQ; assay: Coimmunoprecipitation of endogenous SFPQ from DRG lysate, Western blot; assay type: binding, rat; details: DRG sensory neuron lysate
[3] = tested on: SFPQ; assay: PRM-based quantification of KIF5 and KLC in SFPQ immunoprecipitations; assay type: binding, rat; details: KIF5A vs KIF5B or KIF5C, KLC1 vs KLC2; three independent experiments
[4] = tested on: DRG neurons; DRGs and sciatic nerve of P1 mice; assay: Immunostaining of KIF5s in DRG neurons, DRGs and sciatic nerve; parameters: species or system rat; mouse; details: microfluidic DRG neurons, DRGs and sciatic nerves in vivo
[5] = tested on: HA-SFPQ; assay: Coimmunoprecipitation of HA-SFPQ with KLC1/KIF5A constructs in HEK 293T cells; details: Myc-KLC1 without C-terminal region vs WT, n = 4, P = 0.0033

Molecule	compartment localization (in words) [1]	coimmunoprecipitation with SFPQ (in words) [2]	further results
B1	localize to both CB and distal axon compartments		
B2	localize to both CB and distal axon compartments	preferentially coimmunoprecipitates	relative abundance in SFPQ immunoprecipitate (in words) [3]: approximately twice as abundant
B3	localize to both CB and distal axon compartments		
B4	preferentially localizes in the CB compartment		axonal localization of KIF5B by immunostaining (in words) [4]: largely excluded from axons
B5		none of these kinesins significantly coimmunoprecipitates with SFPQ	
B6	localize to both CB and distal axon compartments	preferentially coimmunoprecipitates	relative abundance in SFPQ immunoprecipitate (in words) [3]: approximately twice as abundant
B7			reduction of binding to SFPQ [5]: ~50%
